Data published in US20190167710A1 (UNIVERSITY OF PITTSBURGH OF THE COMMONWEALTH SYSTEM OF …, published 2019).

Key:
[1] = biological target: T1, anaplastic lymphoma kinase (ALK), mouse, endogenous in iBMDMs and RAW264.7 cells (mouse, UniProt P97793 19-1621, limits assumed); assay: co-immunoprecipitation from iBMDMs and RAW264.7 cells after 3'3'-cGAMP or c-di-AMP (10 µg/ml, 16 h)
T1 construct: Endogenous protein in lysates of mouse macrophage lines (co-immunoprecipitation); also called ALK Receptor Tyrosine Kinase
T1 sequence (P97793 19-1621 limits assumed): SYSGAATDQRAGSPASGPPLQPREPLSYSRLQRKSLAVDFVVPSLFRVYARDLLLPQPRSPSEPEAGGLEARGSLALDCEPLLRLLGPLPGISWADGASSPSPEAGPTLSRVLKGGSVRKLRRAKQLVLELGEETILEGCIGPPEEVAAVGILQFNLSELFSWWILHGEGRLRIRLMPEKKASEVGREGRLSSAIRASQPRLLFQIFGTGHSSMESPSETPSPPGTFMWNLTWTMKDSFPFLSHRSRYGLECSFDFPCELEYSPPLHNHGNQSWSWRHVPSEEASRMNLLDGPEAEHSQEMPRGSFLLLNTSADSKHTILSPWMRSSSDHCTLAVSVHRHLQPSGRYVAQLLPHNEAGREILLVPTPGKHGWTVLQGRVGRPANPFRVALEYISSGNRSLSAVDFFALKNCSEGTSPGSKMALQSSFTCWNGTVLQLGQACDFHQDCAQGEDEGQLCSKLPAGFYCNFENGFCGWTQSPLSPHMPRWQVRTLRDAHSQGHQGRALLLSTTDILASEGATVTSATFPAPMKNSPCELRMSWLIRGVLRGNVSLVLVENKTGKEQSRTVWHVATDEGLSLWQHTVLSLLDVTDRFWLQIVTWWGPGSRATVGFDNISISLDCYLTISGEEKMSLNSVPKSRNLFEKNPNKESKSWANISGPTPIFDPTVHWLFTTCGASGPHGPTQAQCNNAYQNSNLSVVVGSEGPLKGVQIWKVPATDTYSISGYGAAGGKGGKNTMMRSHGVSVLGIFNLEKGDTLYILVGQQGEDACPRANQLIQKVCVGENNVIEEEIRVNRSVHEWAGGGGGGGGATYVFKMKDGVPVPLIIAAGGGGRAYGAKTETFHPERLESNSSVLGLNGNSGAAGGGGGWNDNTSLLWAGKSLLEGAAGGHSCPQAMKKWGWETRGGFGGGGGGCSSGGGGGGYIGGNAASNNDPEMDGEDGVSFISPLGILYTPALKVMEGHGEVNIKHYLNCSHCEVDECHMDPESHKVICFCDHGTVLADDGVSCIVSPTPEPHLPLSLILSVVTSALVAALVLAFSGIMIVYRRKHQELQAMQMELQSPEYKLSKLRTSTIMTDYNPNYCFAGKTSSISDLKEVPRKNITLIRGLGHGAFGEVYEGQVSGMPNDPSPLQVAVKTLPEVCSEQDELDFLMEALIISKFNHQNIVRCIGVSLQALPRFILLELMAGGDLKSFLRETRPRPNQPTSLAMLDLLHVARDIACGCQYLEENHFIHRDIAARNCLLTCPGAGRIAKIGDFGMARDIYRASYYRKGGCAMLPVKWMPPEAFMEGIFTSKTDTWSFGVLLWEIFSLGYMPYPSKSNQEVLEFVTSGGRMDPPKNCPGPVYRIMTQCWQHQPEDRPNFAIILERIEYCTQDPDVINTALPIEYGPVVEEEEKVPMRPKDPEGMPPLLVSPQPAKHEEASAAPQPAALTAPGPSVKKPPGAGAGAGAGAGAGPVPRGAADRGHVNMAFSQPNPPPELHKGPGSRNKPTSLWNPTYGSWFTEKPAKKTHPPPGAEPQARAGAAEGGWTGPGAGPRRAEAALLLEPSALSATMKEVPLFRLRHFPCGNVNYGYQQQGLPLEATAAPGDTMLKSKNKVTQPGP
Method: (§1) Concentrations of proteins in the supernatant were determined by bicinchoninic acid assay. […] Following incubation, agarose/sepharose beads were washed extensively with PBS and proteins were eluted by boiling in 2× sodium dodecyl sulfate (SDS) sample buffer before SDS-PAGE electrophoresis.
(§2) To elucidate the possible role of ALK in the regulation of the STING signaling pathway, we tested whether ALK promotes the phosphorylation of core components of the STING pathway (STING, TBK1, and cGAS) through protein-protein interaction using co-immunoprecipitation techniques.

[2] = biological target: T2, anaplastic lymphoma kinase (ALK), human, endogenous in THP1 cells (human, UniProt Q9UM73 19-1620, limits assumed); assay: co-immunoprecipitation from THP1 cells after 3'3'-cGAMP or c-di-AMP (10 µg/ml, 16 h)
T2 construct: Endogenous protein in lysates of human THP1 monocytes; also called ALK Receptor Tyrosine Kinase
T2 sequence (Q9UM73 19-1620 limits assumed): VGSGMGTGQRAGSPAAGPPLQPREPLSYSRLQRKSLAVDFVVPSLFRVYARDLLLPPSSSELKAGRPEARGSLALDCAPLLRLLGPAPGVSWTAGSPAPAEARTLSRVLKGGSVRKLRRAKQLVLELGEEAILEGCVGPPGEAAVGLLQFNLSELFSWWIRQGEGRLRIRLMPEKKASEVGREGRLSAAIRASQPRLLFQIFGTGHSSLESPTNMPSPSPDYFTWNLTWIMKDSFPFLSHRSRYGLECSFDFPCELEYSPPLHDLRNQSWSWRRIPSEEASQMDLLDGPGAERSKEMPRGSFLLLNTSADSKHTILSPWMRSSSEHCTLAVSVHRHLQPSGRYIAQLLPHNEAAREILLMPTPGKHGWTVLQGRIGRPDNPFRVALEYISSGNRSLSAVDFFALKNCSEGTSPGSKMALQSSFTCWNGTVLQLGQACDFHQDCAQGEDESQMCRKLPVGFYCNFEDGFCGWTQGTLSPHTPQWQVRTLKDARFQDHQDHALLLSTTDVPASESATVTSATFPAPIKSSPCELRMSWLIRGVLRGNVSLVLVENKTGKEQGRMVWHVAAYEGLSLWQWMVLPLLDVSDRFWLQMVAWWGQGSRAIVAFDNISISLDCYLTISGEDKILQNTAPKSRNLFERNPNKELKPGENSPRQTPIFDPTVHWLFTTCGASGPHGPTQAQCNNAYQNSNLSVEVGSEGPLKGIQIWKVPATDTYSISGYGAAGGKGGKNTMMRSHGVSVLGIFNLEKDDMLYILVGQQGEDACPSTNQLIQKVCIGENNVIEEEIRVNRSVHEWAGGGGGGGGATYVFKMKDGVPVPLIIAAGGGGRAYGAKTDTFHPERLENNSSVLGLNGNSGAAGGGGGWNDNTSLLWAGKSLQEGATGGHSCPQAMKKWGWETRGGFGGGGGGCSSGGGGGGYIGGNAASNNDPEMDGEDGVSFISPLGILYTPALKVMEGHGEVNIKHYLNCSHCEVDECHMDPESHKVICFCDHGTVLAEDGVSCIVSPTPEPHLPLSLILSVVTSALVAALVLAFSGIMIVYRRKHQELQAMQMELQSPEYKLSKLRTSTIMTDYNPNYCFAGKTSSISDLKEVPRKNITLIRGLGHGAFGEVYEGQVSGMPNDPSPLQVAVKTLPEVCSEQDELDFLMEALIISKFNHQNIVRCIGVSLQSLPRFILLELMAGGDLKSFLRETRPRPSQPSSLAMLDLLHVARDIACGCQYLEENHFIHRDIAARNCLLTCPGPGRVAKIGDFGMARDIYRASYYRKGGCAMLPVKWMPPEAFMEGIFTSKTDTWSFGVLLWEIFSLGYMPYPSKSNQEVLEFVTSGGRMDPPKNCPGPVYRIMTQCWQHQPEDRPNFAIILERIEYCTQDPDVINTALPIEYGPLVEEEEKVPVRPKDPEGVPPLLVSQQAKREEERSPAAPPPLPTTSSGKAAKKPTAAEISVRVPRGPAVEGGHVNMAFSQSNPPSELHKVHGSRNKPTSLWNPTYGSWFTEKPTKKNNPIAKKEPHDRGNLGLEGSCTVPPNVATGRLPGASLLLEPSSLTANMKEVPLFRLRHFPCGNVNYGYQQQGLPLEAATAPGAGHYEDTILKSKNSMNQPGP
Method: as §1, §2

| binding result [1] | binding result [2] | Binder |
| --- | --- | --- |
|  | no binding | TANK-binding kinase 1 (TBK1), human, endogenous in THP1 cells (enzyme, UniProt Q9UHD2 1-729, looked up, Endogenous protein in cell lysates; also called TBK1/NAK) MQSTSNHLWLLSDILGQGATANVFRGRHKKTGDLFAIKVFNNISFLRPVDVQMREFEVLKKLNHKNIVKLFAIEEETTTRHKVLIMEFCPCGSLYTVLEEPSNAYGLPESEFLIVLRDVVGGMNHLRENGIVHRDIKPGNIMRVIGEDGQSVYKLTDFGAARELEDDEQFVSLYGTEEYLHPDMYERAVLRKDHQKKYGATVDLWSIGVTFYHAATGSLPFRPFEGPRRNKEVMYKIITGKPSGAISGVQKAENGPIDWSGDMPVSCSLSRGLQVLLTPVLANILEADQEKCWGFDQFFAETSDILHRMVIHVFSLQQMTAHKIYIHSYNTATIFHELVYKQTKIISSNQELIYEGRRLVLEPGRLAQHFPKTTEENPIFVVSREPLNTIGLIYEKISLPKVHPRYDLDGDASMAKAITGVVCYACRIASTLLLYQELMRKGIRWLIELIKDDYNETVHKKTEVVITLDFCIRNIEKTVKVYEKLMKINLEAAELGEISDIHTKLLRLSSSQGTIETSLQDIDSRLSPGGSLADAWAHQEGTHPKDRNVEKLQVLLNCMTEIYYQFKKDKAERRLAYNEEQIHKFDKQKLYYHATKAMTHFTDECVKKYEAFLNKSEEWIRKMLHLRKQLLSLTNQCFDIEEEVSKYQEYTNELQETLPQKMFTASSGIKHTMTPIYPSSNTLVEMTLGMKKLKEEMEGVVKELAENNHILERFGSLTMDGGLRNVDCL |
|  | no binding | cyclic-guanosine monophosphate-adenosine monophosphate (cGAMP) synthase (cGAS), human, endogenous in THP1 cells (enzyme, UniProt Q8N884 1-522, looked up, Endogenous protein in cell lysates) MQPWHGKAMQRASEAGATAPKASARNARGAPMDPTESPAAPEAALPKAGKFGPARKSGSRQKKSAPDTQERPPVRATGARAKKAPQRAQDTQPSDATSAPGAEGLEPPAAREPALSRAGSCRQRGARCSTKPRPPPGPWDVPSPGLPVSAPILVRRDAAPGASKLRAVLEKLKLSRDDISTAAGMVKGVVDHLLLRLKCDSAFRGVGLLNTGSYYEHVKISAPNEFDVMFKLEVPRIQLEEYSNTRAYYFVKFKRNPKENPLSQFLEGEILSASKMLSKFRKIIKEEINDIKDTDVIMKRKRGGSPAVTLLISEKISVDITLALESKSSWPASTQEGLRIQNWLSAKVRKQLRLKPFYLVPKHAKEGNGFQEETWRLSFSHIEKEILNNHGKSKTCCENKEEKCCRKDCLKLMKYLLEQLKERFKDKKHLDKFSSYHVKTAFFHVCTQNPQDSQWDRKDLGLCFDNCVTYFLQCLRTEKLENYFIPEFNLFSSNLIDKRSKEFLTKQIEYERNNEFPVFDEF |
| no binding |  | TIR-domain-containing adapter-inducing interferon-β (TRIF), mouse, endogenous in iBMDMs and RAW264.7 cells (other, UniProt Q80UF7 1-732, looked up, Endogenous protein in cell lysates; also called TICAM-1) MDNPGPSLRGAFGILGALERDRLTHLKHKLGSLCSGSQESKLLHAMVLLALGQDTEARVSLESLKMNTVAQLVAHQWADMETTEGPEEPPDLSWTVARLYHLLAEENLCPASTRDMAYQVALRDFASQGDHQLGQLQNEAWDRCSSDIKGDPSGFQPLHSHQGSLQPPSASPAVTRSQPRPIDTPDWSWGHTLHSTNSTASLASHLEISQSPTLAFLSSHHGTHGPSKLCNTPLDTQEPQLVPEGCQEPEEISWPPSVETSVSLGLPHEISVPEVSPEEASPILPDALAAPDTSVHCPIECTELSTNSRSPLTSTTESVGKQWPITSQRSPQVPVGDDSLQNTTSSSPPAQPPSLQASPKLPPSPLSSASSPSSYPAPPTSTSPVLDHSETSDQKFYNFVVIHARADEQVALRIREKLETLGVPDGATFCEEFQVPGRGELHCLQDAIDHSGFTILLLTASFDCSLSLHQINHALMNSLTQSGRQDCVIPLLPLECSQAQLSPDTTRLLHSIVWLDEHSPIFARKVANTFKTQKLQAQRVRWKKAQEARTLKEQSIQLEAERQNVAAISAAYTAYVHSYRAWQAEMNKLGVAFGKNLSLGTPTPSWPGCPQPIPSHPQGGTPVFPYSPQPPSFPQPPCFPQPPSFPQPPSFPLPPVSSPQSQSFPSASSPAPQTPGPQPLIIHHAQMVQLGVNNHMWGHTGAQSSDDKTECSENPCMGPLTDQGEPLLETPE |

The next lines start with the binder.

| Binder | binding result [1] | binding result [2] |
| --- | --- | --- |
| TANK-binding kinase 1 (TBK1), mouse, endogenous in iBMDMs and RAW264.7 cells (enzyme, UniProt Q9WUN2 1-729, looked up, Endogenous protein in cell lysates; also called TBK1/NAK) MQSTSNHLWLLSDILGQGATANVFRGRHKKTGDLYAVKVFNNISFLRPVDVQMREFEVLKKLNHKNIVKLFAIEEETTTRHKVLIMEFCPCGSLYTVLEEPSNAYGLPESEFLIVLRDVVGGMNHLRENGIVHRDIKPGNIMRVIGEDGQSVYKLTDFGAARELEDDEQFVSLYGTEEYLHPDMYERAVLRKDHQKKYGATVDLWSVGVTFYHAATGSLPFRPFEGPRRNKEVMYKIITGKPSGAISGVQKAENGPIDWSGDMPLSCSLSQGLQALLTPVLANILEADQEKCWGFDQFFAETSDVLHRMVIHVFSLQHMTAHKIYIHSYNTAAVFHELVYKQTKIVSSNQELIYEGRRLVLELGRLAQHFPKTTEENPIFVTSREQLNTVGLRYEKISLPKIHPRYDLDGDASMAKAVTGVVCYACRTASTLLLYQELMRKGVRWLVELVKDDYNETVHKKTEVVITLDFCIRNIEKTVKVYEKLMKVNLEAAELGEISDIHTKLLRLSSSQGTIESSLQDISSRLSPGGLLADTWAHQEGTHPRDRNVEKLQVLLNCITEIYYQFKKDKAERRLAYNEEQIHKFDKQKLYYHATKAMSHFSEECVRKYEAFKDKSEEWMRKMLHLRKQLLSLTNQCFDIEEEVSKYQDYTNELQETLPQKMLAASGGVKHAMAPIYPSSNTLVEMTLGMKKLKEEMEGVVKELAENNHILERFGSLTMDGGLRNVDCL | no binding |  |
| stimulator of interferon genes (STING), mouse, endogenous in iBMDMs and RAW264.7 cells (other, UniProt Q3TBT3 1-378, looked up, Endogenous protein in cell lysates) MPYSNLHPAIPRPRGHRSKYVALIFLVASLMILWVAKDPPNHTLKYLALHLASHELGLLLKNLCCLAEELCHVQSRYQGSYWKAVRACLGCPIHCMAMILLSSYFYFLQNTADIYLSWMFGLLVLYKSLSMLLGLQSLTPAEVSAVCEEKKLNVAHGLAWSYYIGYLRLILPGLQARIRMFNQLHNNMLSGAGSRRLYILFPLDCGVPDNLSVVDPNIRFRDMLPQQNIDRAGIKNRVYSNSVYEILENGQPAGVCILEYATPLQTLFAMSQDAKAGFSREDRLEQAKLFCRTLEEILEDVPESRNNCRLIVYQEPTDGNSFSLSQEVLRHIRQEEKEEVTMNAPMTSVAPPPSVLSQEPRLLISGMDQPLPLRTDLI | no binding |  |
